The target of this test is T1, recombinant human IL-12Rβ1 (human, UniProt P42701 24-545).
T1 construct: human IL-12 receptor subunit beta-1, recombinant; also called rIL-12Rβ1; source: bought: Sino Biological (11674-H08H)
The test can be described thus: ELISA; solid-phase binding assay; wells coated with rIL-12Rβ1, rIL-12Rβ2 or no IL-12R chain; IL-12 or IL-12p40 monomer alone or with IL-35, each cytokine fixed at 5 μg/ml; overnight at 4°C; detected with anti-IL-12 or anti-IL-12p40 and HRP. The note with it: both partners purified. (In general: ELISA stands for enzyme-linked immunosorbent assay.)

Consider one molecule from PMC10580122, “Human IL-35 Inhibits the Bioactivity of IL-12 and Its Interaction with IL-12Rβ2” (ImmunoHorizons, 2023).

B1: Human IL-12 (complex)
chain 1: RNLPVATPDPGMFPCLHHSQNLLRAVSNMLQKARQTLEFYPCTSEEIDHEDITKDKTSTVEACLPLELTKNESCLNSRETSFITNGSCLASRKTSFMMALCLSSIYEDLKMYQVEFKTMNAKLLMDPKRQIFLDQNMLAVIDELMQALNFNSETVPQKSSLEEPDFYKTKIKLCILLHAFRIRAVTIDRVMSYLNAS
chain 2: IWELKKDVYVVELDWYPDAPGEMVVLTCDTPEEDGITWTLDQSSEVLGSGKTLTIQVKEFGDAGQYTCHKGGEVLSHSLLLLHKKEDGIWSTDILKDQKEPKNKTFLRCEAKNYSGRFTCWWLTTISTDLTFSVKSSRGSSDPQGVTCGAATLSAERVRGDNKEYEYSVECQEDSACPAAEESLPIEVMVDAVHKLKYENYTSSFFIRDIIKPDPPKNLQLKPLKNSRQVEVSWEYPDTWSTPHSYFSLTFCVQVQGKSKREKKDRVFTDKTSATVICRKNASISVRAQDRYYSSSWSEWASVPCS
notes: p35 subunit of human IL-12 (IL-12p35); linked to p40 via a disulfide bond; p40 subunit of human IL-12 (IL-12p40); linked to p35 via a disulfide bond; Bought heterodimer of p35 and p40; also called exogenous human IL-12; source: bought: PeproTech (200-12H)
As for B1, the binding result is “binds”.
